Key:
[1] = molecular target: recombinant UBE3A protein (Homo sapiens (Human)) (UniProt Q05086); assay: 2-step Simoa; capture MS 2F6; UBE3A 1 ng/ml
[2] = molecular target: recombinant UBE3A protein (Homo sapiens (Human)) (UniProt Q05086); assay: 3-step Simoa; capture GTX; UBE3A 10 ng/ml
[3] = molecular target: recombinant UBE3A protein (Homo sapiens (Human)) (UniProt Q05086); assay: 2-step Simoa; capture GTX; UBE3A 0.01 ng/ml
[4] = molecular target: recombinant UBE3A protein (Homo sapiens (Human)) (UniProt Q05086); assay: 3-step Simoa; capture MS 2F6; UBE3A 1 ng/ml
[5] = molecular target: recombinant UBE3A protein (Homo sapiens (Human)) (UniProt Q05086); assay: 2-step Simoa; capture MS 2F6; UBE3A 10 ng/ml
[6] = molecular target: recombinant UBE3A protein (Homo sapiens (Human)) (UniProt Q05086); assay: Simoa head-to-head, Table 10; capture GTX; UBE3A 0.16 ng/ml
[7] = molecular target: recombinant UBE3A protein (Homo sapiens (Human)) (UniProt Q05086); assay: 2-step Simoa; capture Novus; UBE3A 0.1 ng/ml
[8] = molecular target: recombinant UBE3A protein (Homo sapiens (Human)) (UniProt Q05086); assay: 3-step Simoa; capture Novus; UBE3A 10 ng/ml
[9] = molecular target: recombinant UBE3A protein (Homo sapiens (Human)) (UniProt Q05086); assay: 2-step Simoa; capture Novus; UBE3A 10 ng/ml
[10] = molecular target: recombinant UBE3A protein (Homo sapiens (Human)) (UniProt Q05086); assay: 3-step Simoa; capture Novus; UBE3A 1 ng/ml
[11] = molecular target: recombinant UBE3A protein (Homo sapiens (Human)) (UniProt Q05086); assay: 3-step Simoa; capture GTX; UBE3A 0.1 ng/ml
[12] = molecular target: recombinant UBE3A protein (Homo sapiens (Human)) (UniProt Q05086); assay: 2-step Simoa; capture GTX; UBE3A 10 ng/ml
[13] = molecular target: recombinant UBE3A protein (Homo sapiens (Human)) (UniProt Q05086); assay: 2-step Simoa; capture Novus; UBE3A 0.01 ng/ml
[14] = molecular target: recombinant UBE3A protein (Homo sapiens (Human)) (UniProt Q05086); assay: 3-step Simoa; capture Novus; UBE3A 0.01 ng/ml
[15] = molecular target: recombinant UBE3A protein (Homo sapiens (Human)) (UniProt Q05086); assay: 3-step Simoa; capture GTX; UBE3A 1 ng/ml
[16] = molecular target: recombinant UBE3A protein (Homo sapiens (Human)) (UniProt Q05086); assay: 2-step Simoa; capture MS 2F6; UBE3A 0.01 ng/ml
[17] = molecular target: recombinant UBE3A protein (Homo sapiens (Human)) (UniProt Q05086); assay: 3-step Simoa; capture MS 2F6; UBE3A 10 ng/ml
[18] = molecular target: recombinant UBE3A protein (Homo sapiens (Human)) (UniProt Q05086); assay: 3-step Simoa; capture GTX; UBE3A 0.01 ng/ml
[19] = molecular target: recombinant UBE3A protein (Homo sapiens (Human)) (UniProt Q05086); assay: 3-step Simoa; capture MS 2F6; UBE3A 0.1 ng/ml
[20] = molecular target: recombinant UBE3A protein (Homo sapiens (Human)) (UniProt Q05086); assay: 2-step Simoa; capture Novus; UBE3A 1 ng/ml
[21] = molecular target: recombinant UBE3A protein (Homo sapiens (Human)) (UniProt Q05086); assay: 2-step Simoa; capture GTX; UBE3A 1 ng/ml
[22] = molecular target: recombinant UBE3A protein (Homo sapiens (Human)) (UniProt Q05086); assay: 2-step Simoa; capture MS 2F6; UBE3A 0.1 ng/ml
[23] = molecular target: recombinant UBE3A protein (Homo sapiens (Human)) (UniProt Q05086); assay: 3-step Simoa; capture Novus; UBE3A 0.1 ng/ml

Sequence of UniProt Q05086 (Q05086 whole entry): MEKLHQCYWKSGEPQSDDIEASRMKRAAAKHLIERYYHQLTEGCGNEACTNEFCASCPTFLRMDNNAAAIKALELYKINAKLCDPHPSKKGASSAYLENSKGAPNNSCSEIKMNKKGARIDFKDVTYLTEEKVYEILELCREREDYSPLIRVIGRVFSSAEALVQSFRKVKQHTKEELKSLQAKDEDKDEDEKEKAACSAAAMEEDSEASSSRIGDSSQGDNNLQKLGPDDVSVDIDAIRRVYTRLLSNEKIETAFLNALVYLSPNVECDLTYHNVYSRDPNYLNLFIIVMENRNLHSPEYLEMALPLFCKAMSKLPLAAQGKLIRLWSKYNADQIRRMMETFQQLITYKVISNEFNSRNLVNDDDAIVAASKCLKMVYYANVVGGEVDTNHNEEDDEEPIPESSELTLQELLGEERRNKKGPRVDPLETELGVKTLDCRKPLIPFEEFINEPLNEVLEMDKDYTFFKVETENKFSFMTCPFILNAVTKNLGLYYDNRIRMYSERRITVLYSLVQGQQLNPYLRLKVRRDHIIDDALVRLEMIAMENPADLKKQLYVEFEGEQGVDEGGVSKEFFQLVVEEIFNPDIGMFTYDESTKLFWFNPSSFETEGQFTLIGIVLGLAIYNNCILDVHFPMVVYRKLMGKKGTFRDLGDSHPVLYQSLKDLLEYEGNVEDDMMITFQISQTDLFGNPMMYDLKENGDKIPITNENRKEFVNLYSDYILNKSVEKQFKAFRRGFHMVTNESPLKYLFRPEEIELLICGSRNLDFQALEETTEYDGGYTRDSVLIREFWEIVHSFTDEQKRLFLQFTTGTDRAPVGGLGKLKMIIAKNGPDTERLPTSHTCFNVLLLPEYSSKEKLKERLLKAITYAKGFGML

Substance “anti-UBE3A antibody 3E5 (SAB1404508-100 ug, Millipore-Sigma)” has an AEB1 [1] of 0.0424, an AEB2 [1] of 0.0451 and an Ave AEB [1] of 0.0437. The Signal to Background [1] was 3.9, the AEB1 [2] was 0.404 and the AEB2 [2] was 0.425. It also gave an Ave AEB [2] of 0.414, a Signal to Background [2] of 48.5 and an AEB1 [3] of 0.0162. The AEB2 [3] was 0.0168, the Ave AEB [3] was 0.0165 and the AEB1 [4] was 0.0206. The AEB2 [4] was 0.0228, the Ave AEB [4] was 0.0217 and the Signal to Background [4] was 5.52. The AEB1 [5] was 0.334, the AEB2 [5] was 0.338 and the Ave AEB [5] was 0.336. For the same substance, the Signal to Background [5] was 30, the AEB1 [6] was 0.0558 and the AEB2 [6] was 0.0571. The Ave AEB [6] was 0.0564, the Signal to Background [6] was 2.48 and the AEB1 [7] was 0.0237. It also gave an AEB2 [7] of 0.0272, an Ave AEB [7] of 0.0255 and a Signal to Background [7] of 1.02. The AEB1 [8] was 0.159, the AEB2 [8] was 0.154 and the Ave AEB [8] was 0.156. It also gave a Signal to Background [8] of 16.5, an AEB1 [9] of 0.174 and an AEB2 [9] of 0.164. The Ave AEB [9] was 0.169, the Signal to Background [9] was 6.77 and the AEB1 [10] was 0.0276. For the same substance, the AEB2 [10] was 0.0233, the Ave AEB [10] was 0.0254 and the Signal to Background [10] was 2.68. The AEB1 [11] was 0.0204, the AEB2 [11] was 0.0181 and the Ave AEB [11] was 0.0192. It also gave a Signal to Background [11] of 2.25, an AEB1 [12] of 0.724 and an Ave AEB [12] of 0.724. It also gave an AEB1 [13] of 0.0302, an AEB2 [13] of 0.0257 and an Ave AEB [13] of 0.028. The Signal to Background [13] was 1.12, the AEB1 [14] was 0.0105 and the AEB2 [14] was 0.0102. For the same substance, the Ave AEB [14] was 0.0104, the Signal to Background [14] was 1.09 and the AEB2 [15] was 0.0774. The Ave AEB [15] was 0.0774, the Signal to Background [15] was 9.06 and the AEB1 [16] was 0.0113. It also gave an AEB2 [16] of 0.0141, an Ave AEB [16] of 0.0127 and a Signal to Background [16] of 1.13. It also gave an AEB1 [17] of 0.177, an AEB2 [17] of 0.188 and an Ave AEB [17] of 0.183. The Signal to Background [17] was 46.6, the AEB1 [18] was 0.0084 and the AEB2 [18] was 0.0082. It also gave an Ave AEB [18] of 0.0083, a Signal to Background [18] of 0.972 and an AEB1 [19] of 0.0063. It also gave an AEB2 [19] of 0.0064, an Ave AEB [19] of 0.0063 and a Signal to Background [19] of 1.62. The AEB1 [20] was 0.0412, the AEB2 [20] was 0.0426 and the Ave AEB [20] was 0.0419. For the same substance, the Signal to Background [20] was 1.68, the AEB1 [21] was 0.152 and the AEB2 [21] was 0.157. For the same substance, the Ave AEB [21] was 0.154, the AEB1 [22] was 0.0169 and the AEB2 [22] was 0.0141. It also gave an Ave AEB [22] of 0.0155, a Signal to Background [22] of 1.38 and an AEB1 [23] of 0.0142. The AEB2 [23] was 0.0119, the Ave AEB [23] was 0.013 and the Signal to Background [23] was 1.38.
